Data as given in US20230181753A1 (INSERM INSTITUT NATIONAL DE LA SANTE ET DE LA RECHERCHE …, published 2023).

B1: 314.8 mAb (antibody, V domains shown)
VH: QVQLQQPGTELMKPGASVKLSCKASGYTFTTYWMHWVKQRPGQGLEWIGEIDPSDSYVNYNQNFKGKATLTVDKSSSTAYIQLSSLTSEDSAVYFCARSPDYYGTSLAWFDYWGQGTLVTVST
VL: DIVMTQAAPSVPVTPGESVSISCRSSKSPLHSNGNIYLYWFLQRPGQSPQLLIYRMSNLASGVPDRFSGSGSGTTFTLKISRVEAEDVGVYYCMQHLEYPYTFGGGTKLEIK
B2: anti-ICOS-MMAE ADC (anti-ICOS 314.8-MMAE) (antibody, V domains shown)
VH: QVQLQQPGTELMKPGASVKLSCKASGYTFTTYWMHWVKQRPGQGLEWIGEIDPSDSYVNYNQNFKGKATLTVDKSSSTAYIQLSSLTSEDSAVYFCARSPDYYGTSLAWFDYWGQGTLVTVST
VL: DIVMTQAAPSVPVTPGESVSISCRSSKSPLHSNGNIYLYWFLQRPGQSPQLLIYRMSNLASGVPDRFSGSGSGTTFTLKISRVEAEDVGVYYCMQHLEYPYTFGGGTKLEIK
modifications: coupled to MMAE; site and linker not stated
B3: anti-ICOS-PBD ADC (antibody, V domains shown)
VH: QVQLQQPGTELMKPGASVKLSCKASGYTFTTYWMHWVKQRPGQGLEWIGEIDPSDSYVNYNQNFKGKATLTVDKSSSTAYIQLSSLTSEDSAVYFCARSPDYYGTSLAWFDYWGQGTLVTVST
VL: DIVMTQAAPSVPVTPGESVSISCRSSKSPLHSNGNIYLYWFLQRPGQSPQLLIYRMSNLASGVPDRFSGSGSGTTFTLKISRVEAEDVGVYYCMQHLEYPYTFGGGTKLEIK
modifications: coupled to pyrrolobenzodiazepine (PBD); site and linker not stated

Tests used:
[1] = substrate: ICOS (Inducible T cell costimulator) (UniProt Q9Y6W8); test: flow cytometry, staining of HUT78 cells
[2] = substrate: ICOS (Inducible T cell costimulator) (UniProt Q9Y6W8); test: flow cytometry, staining of MyLa cells
[3] = substrate: ICOS (Inducible T cell costimulator) (UniProt Q9Y6W8); test: flow cytometry, staining of MJ cells
[4] = target: T1, ICOS (Inducible T cell costimulator) (UniProt Q9Y6W8 21-199, limits assumed); test: cell-based or functional assay
T1 sequence (looked up): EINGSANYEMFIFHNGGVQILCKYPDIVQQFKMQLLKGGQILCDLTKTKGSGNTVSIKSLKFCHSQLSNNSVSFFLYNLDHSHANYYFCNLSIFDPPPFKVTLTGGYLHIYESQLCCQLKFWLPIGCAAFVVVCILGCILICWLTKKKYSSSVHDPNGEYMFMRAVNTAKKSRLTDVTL

| Binder | MFI ratio [1] | MFI ratio [2] | MFI ratio [3] | IC50, cell viability (alamarBlue), Jurkat-ICOS cells [4] [ng/mL] | IC50, cell viability (alamarBlue), MJ cells [4] [ng/mL] | IC50, cell viability (alamarBlue), MyLa cells [4] [ng/mL] | IC50, cell viability (alamarBlue), HUT78 cells [4] [ng/mL] |
| --- | --- | --- | --- | --- | --- | --- | --- |
| B1 | 4.5 | 144 | 96 |  |  |  |  |
| B2 |  |  |  | 6.7 | 36.2 | 8.2 |  |
| B3 |  |  |  | 0.7 | 0.8 | 1.2 | 9 |
